Assays:
[1] = target: Sinorhizobium meliloti Clr, C-terminally His6-tagged (Sinorhizobium meliloti); test: SEC
[2] = target: Sinorhizobium meliloti Clr, C-terminally His6-tagged (Sinorhizobium meliloti); test: crystal structure

percent in the monomeric state (monomer-dimer equilibrium) [1]: 86%
stoichiometry N [2]: 2
Substance: Sinorhizobium meliloti Clr, C-terminally His6-tagged (natural protein)
